Among the data in patent US20150274820A1 (ESBATECH AN ALCON BIOMEDICAL RESEARCH UNIT, published 2015) are Kd, koff and kon values, retold here.

The labels stand for the following.
B1: 511max_min (scFv)
scFv: EIVMTQSPSTLSASVGDRVIITCQASQSINIWLSWYQQKPGKAPKLLIYRASTLASGVPSRFSGSGSGTEFTLTISSLQPDDFATYYCQANYAYSAGYGAAFGQGTKLTVLGGGGGSGGGGSGGGGSGGGGSEVQLVESGGGLVQPGGSLRLSCAASGFSLNTYYMNWVRQAPGKGLEWVSIIAPDDTTYYASWAKSRFTISRDNSKNTLYLQMNSLRAEDTAVYYCAKSGDTTAWGADIWGQGTLVTVSS
notes: also called Protein Nr; 905
B2: 511min_max (scFv)
scFv: EIVMTQSPSTLSASVGDRVIITCQASQSINIWCSWYQQKPGKAPKLLIYRASTLASGVPSRFSGSGSGAEFTLTISSLQPDDFATYYCQANYAYSAGYGAAFGQGTKLTVLGGGGGSGGGGSGGGGSGGGGSEVQLVESGGGLVQPGGSLRLSCTVSGFSLNTYYMNWVRQAPGKGLEWVGIIAPDDTTYYASWAKSRSTISRDTSKNTVYLQMNSLRAEDTAVYYCARSGDTTAWGADIWGQGTLVTVSS
notes: also called Protein Nr; 904
B3: 578-max FW1.4_DHP (scFv)
scFv: EIVMTQSPSTLSASVGDRVIITCQASEIIHSWLAWYQQKPGKAPKLLIYLASTLASGVPSRFSGSGSGTQFTLTISSLQPDDFATYYCQNVYLASTNGANFGQGTKLTVLGGGGGSGGGGSGGGGSGGGGSEVQLVESGGGSVQPGGSLRLSCTASGFSLTDYYYMTWVRQAPGKGLEWVGFIDPDDDPYYATWAKGRFTISRDTSKNTVYLQMNSLRAEDTATYYCAGGDHNSGWGLDIWGQGTTVTVSS
notes: Tied by name only; also called Protein Nr; 960
B4: 578min_max T84N (scFv)
scFv: EIVMTQSPSTLSASVGDRVIITCQASEIIHSWLAWYQQKPGKAPKLLIYLASTLASGVPSRFSGSGSGAEFTLTISSLQPDDFATYYCQNVYLASTNGANFGQGTKLTVLGGGGGSGGGGSGGGGSGGGGSEVQLVESGGGLVQPGGSLRLSCTASGFSLTDYYYMTWVRQAPGKGLEWVGFIDPDDDPYYATWAKGRFTISRDNSKNTVYLQMNSLRAEDTAVYYCAGGDHNSGWGLDIWGQGTLVTVSS
notes: the VH entry already carries T84N; tied by name; also called Protein Nr
B5: 578-max-min (scFv)
scFv: EIVMTQSPSTLSASVGDRVIITCQASEIIHSWLAWYQQKPGKAPKLLIYLASTLASGVPSRFSGSGSGTQFTLTISSLQPDDFATYYCQNVYLASTNGANFGQGTKLTVLGGGGGSGGGGSGGGGSGGGGSEVQLVESGGGLVQPGGSLRLSCAASGFSLTDYYYMTWVRQAPGKGLEWVSFIDPDDDPYYATWAKGRFTISRDNSKNTLYLQMNSLRAEDTAVYYCAKGDHNSGWGLDIWGQGTLVTVSS
notes: also called Protein Nr; 902
B6: 578min_max V89L (scFv)
scFv: EIVMTQSPSTLSASVGDRVIITCQASEIIHSWLAWYQQKPGKAPKLLIYLASTLASGVPSRFSGSGSGAEFTLTISSLQPDDFATYYCQNVYLASTNGANFGQGTKLTVLGGGGGSGGGGSGGGGSGGGGSEVQLVESGGGLVQPGGSLRLSCTASGFSLTDYYYMTWVRQAPGKGLEWVGFIDPDDDPYYATWAKGRFTISRDTSKNTLYLQMNSLRAEDTAVYYCAGGDHNSGWGLDIWGQGTLVTVSS
notes: the VH entry already carries V89L; tied by name; also called Protein Nr; 980
B7: 578min_max V89A (scFv)
scFv: EIVMTQSPSTLSASVGDRVIITCQASEIIHSWLAWYQQKPGKAPKLLIYLASTLASGVPSRFSGSGSGAEFTLTISSLQPDDFATYYCQNVYLASTNGANFGQGTKLTVLGGGGGSGGGGSGGGGSGGGGSEVQLVESGGGLVQPGGSLRLSCTASGFSLTDYYYMTWVRQAPGKGLEWVGFIDPDDDPYYATWAKGRFTISRDTSKNTAYLQMNSLRAEDTAVYYCAGGDHNSGWGLDIWGQGTLVTVSS
notes: the VH entry already carries V89A; tied by name; also called Protein Nr; 978
B8: 578min_max T84N_V89A (scFv)
scFv: EIVMTQSPSTLSASVGDRVIITCQASEIIHSWLAWYQQKPGKAPKLLIYLASTLASGVPSRFSGSGSGAEFTLTISSLQPDDFATYYCQNVYLASTNGANFGQGTKLTVLGGGGGSGGGGSGGGGSGGGGSEVQLVESGGGLVQPGGSLRLSCTASGFSLTDYYYMTWVRQAPGKGLEWVGFIDPDDDPYYATWAKGRFTISRDNSKNTAYLQMNSLRAEDTAVYYCAGGDHNSGWGLDIWGQGTLVTVSS
notes: the VH entry already carries the changes; tied by name; also called Protein Nr; 1009
B9: 610-min (scFv)
scFv: EIVMTQSPSTLSASVGDRVIITCQASQSISSWLSWYQQKPGKAPKLLIYQASTLASGVPSRFSGSGSGAEFTLTISSLQPDDFATYYCQNNYGFRSYGGAFGQGTKLTVLGGGGGSGGGGSGGGGSGGGGSEVQLVESGGGLVQPGGSLRLSCAASGIDFSGAYYMGWVRQAPGKGLEWVSYIDYDGDRYYASWAKGRFTISRDNSKNTLYLQMNSLRAEDTAVYYCAKSDYSSGWGTDIWGQGTLVTVSS
notes: VL and VH tied by name; also called Protein Nr
B10: 610-max (scFv)
scFv: EIVMTQSPSTLSASVGDRVIITCQASQSISSWLSWYQQKPGKAPKLLIYQASTLASGVPSRFSGSGSGTEFTLTISSLQPDDFATYYCQNNYGFRSYGGAFGQGTKLTVLGGGGGSGGGGSGGGGSGGGGSEVQLVESGGGLVQPGGSLRLSCTASGIDFSGAYYMGWVRQAPGKGLEWVGYIDYDGDRYYASWAKGRFTISKDTSKNTVYLQMNSLRAEDTAVYYCARSDYSSGWGTDIWGQGTLVTVSS
notes: as for B9
B11: 534-min C-His (scFv)
scFv: EIVMTQSPSTLSASVGDRVIITCQASQSINIWLSWYQQKPGKAPKLLIYKESTLASGVPSRFSGSGSGAEFTLTISSLQPDDFATYYCQNNYDSGNNGFPFGQGTKLTVLGGGGGSGGGGSGGGGSGGGGSEVQLVESGGGLVQPGGSLRLSCAASGFSLSYYYMSWVRQAPGKGLEWVSIIGPGDYTDYASWAKGRFTISRDNSKNTLYLQMNSLRAEDTAVYYCAKGDDNSGWGEDIWGQGTLVTVSS
notes: VL and VH tied by name; His tag only named (C-His); also called Protein Nr; 807; not shown: C-terminal His tag
B12: 375-min (scFv)
scFv: EIVMTQSPSTLSASVGDRVIITCQASENINIWLSWYQQKPGKAPKLLIYQASKLASGVPSRFSGSGSGAEFTLTISSLQPDDFATYYCQNNYSYNRYGAPFGQGTKLTVLGGGGGSGGGGSGGGGSGGGGSEVQLVESGGGLVQPGGSLRLSCAASGFSFTTTDYMCWVRQAPGKGLEWVSCILAGDGSTYYANWAKGRFTISRDNSKNTLYLQMNSLRAEDTAVYYCAKSDPASSWSFALWGQGTLVTVSS
notes: VL and VH tied by name; also called Protein Nr; 857
B13: 435-min (scFv)
scFv: EIVMTQSPSTLSASVGDRVIITCQASQSIGSSLAWYQQKPGKAPKLLIYTAANLASGVPSRFSGSGSGAEFTLTISSLQPDDFATYYCQNFATSDTVTFGQGTKLTVLGGGGGSGGGGSGGGGSGGGGSEVQLVESGGGLVQPGGSLRLSCAASGFSLNTNYWMCWVRQAPGKGLEWVSCMYTGSYNRAYYASWAKGRFTISRDNSKNTLYLQMNSLRAEDTAVYYCAKGSNWYSDLWGQGTLVTVSS
notes: VL and VH tied by name; also called Protein Nr; 944

T1 sequence (P15692 other isoform, or with tags, fused parts or gaps): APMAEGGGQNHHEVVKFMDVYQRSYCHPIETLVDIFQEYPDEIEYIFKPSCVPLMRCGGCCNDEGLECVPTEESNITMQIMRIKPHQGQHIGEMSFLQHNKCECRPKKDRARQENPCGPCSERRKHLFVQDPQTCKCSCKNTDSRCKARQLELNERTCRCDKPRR

The first assay has as its target T1, recombinant human VEGF165 (human, UniProt P15692 27-191).
T1 construct: mature; Isoform VEGF165 of the entry; also called hVEGF165; hVEGF
As to the kind of experiment: Biacore SPR, VEGF immobilized, pH 5. The procedure:
In this example, the Biacore-binding ability of scFvs was tested and the binding affinity was measured using the exemplary surface plasmon resonance method with BIAcore™-T100. The VEGF proteins, tested for binding by these scFv candidates, in this example and later examples include purified Escherichia coli-expressed recombinant human VEGF₁₆₅ (PeproTech EC Ltd.), recombinant human VEGF₁₂₁ (PeproTech EC Ltd.), recombinant human VEGF₁₁₀ (ESBATech AG), recombinant murine VEGF₁₆₄ (PeproTech EC Ltd.), recombinant rat VEGF₁₆₄ (Biovision), recombinant rabbit VEGF₁₁₀ (ESBATech AG), and recombinant human PLGF (PeproTech EC Ltd.). For the surface plasmon resonance experiment, carboxymethylated dextran biosensor chips (CM4, GE Healthcare) were activated with N-ethyl-N′-(3-dimethylaminopropyl) carbodiimide hydrochloride and N-hydroxysuccinimide according to the supplier's instructions. Each of the 6 different VEGF forms, as exemplified above, was coupled to 1 of the 4 different flow cells on a CM4 sensor chip using a standard amine-coupling procedure. […] The 4th flow cell of each chip was treated similarly except no proteins were immobilized prior to blocking, and the flow cell was used as in-line reference. […] Dissociation of the anti-VEGF scFv from the VEGF on the CM4 chip was allowed to proceed for 10 min at 25° C. Sensorgrams were generated for each anti-VEGF scFv sample after in-line reference cell correction followed by buffer sample subtraction. The apparent dissociation rate constant (kd), the apparent association rate constant (kₐ) and the apparent dissociation equilibrium constant (KD) were calculated using one-to-one Langmuir binding model with BIAcore T100 evaluation Software version 1.1. […]
A word on the Kd: it is the constant that tells how readily two partners part at equilibrium. Broadly, the koff is the first-order rate constant of dissociation. The kon is a measure of how fast the partners come together. In the case of B1, the Kd worked out at 1.48 nM, the koff is 0.000754 s⁻¹ and the kon came out at 511000 M⁻¹ s⁻¹.
For B2, the Kd was 0.278 nM, the koff amounted to 0.000102 s⁻¹ and the kon is 366000 M⁻¹ s⁻¹.
For B3, in that order: 0.266 nM, 0.000248 s⁻¹ and 930000 M⁻¹ s⁻¹.
The corresponding values for B4 are 0.971 nM, 0.0007 s⁻¹ and 721000 M⁻¹ s⁻¹.
Regarding B5, the Kd stood at 6.55 nM, the koff came to 0.00883 s⁻¹ and the kon was found to be 1.35e+06 M⁻¹ s⁻¹.
For B6, in that order: 2.13 nM, 0.00187 s⁻¹ and 875000 M⁻¹ s⁻¹.
B7: the Kd was 1.2 nM, the koff was determined as 0.000612 s⁻¹ and the kon is 509000 M⁻¹ s⁻¹.
For B8, in that order: 0.615 nM, 0.000493 s⁻¹ and 801000 M⁻¹ s⁻¹.

The target in the next assay is T1, recombinant human VEGF165. Briefly: Biacore SPR, VEGF immobilized, pH 5. This is another data set of the same source. Here is the method:
(§1) In this example, the Biacore-binding ability of scFvs was tested and the binding affinity was measured using the exemplary surface plasmon resonance method with BIAcore™-T100. The VEGF proteins, tested for binding by these scFv candidates, in this example and later examples include purified Escherichia coli-expressed recombinant human VEGF₁₆₅ (PeproTech EC Ltd.), recombinant human VEGF₁₂₁ (PeproTech EC Ltd.), recombinant human VEGF₁₁₀ (ESBATech AG), recombinant murine VEGF₁₆₄ (PeproTech EC Ltd.), recombinant rat VEGF₁₆₄ (Biovision), recombinant rabbit VEGF₁₁₀ (ESBATech AG), and recombinant human PLGF (PeproTech EC Ltd.). For the surface plasmon resonance experiment, carboxymethylated dextran biosensor chips (CM4, GE Healthcare) were activated with N-ethyl-N′-(3-dimethylaminopropyl) carbodiimide hydrochloride and N-hydroxysuccinimide according to the supplier's instructions. Each of the 6 different VEGF forms, as exemplified above, was coupled to 1 of the 4 different flow cells on a CM4 sensor chip using a standard amine-coupling procedure. […] The 4th flow cell of each chip was treated similarly except no proteins were immobilized prior to blocking, and the flow cell was used as in-line reference. […] Dissociation of the anti-VEGF scFv from the VEGF on the CM4 chip was allowed to proceed for 10 min at 25° C. Sensorgrams were generated for each anti-VEGF scFv sample after in-line reference cell correction followed by buffer sample subtraction. The apparent dissociation rate constant (kd), the apparent association rate constant (kₐ) and the apparent dissociation equilibrium constant (KD) were calculated using one-to-one Langmuir binding model with BIAcore T100 evaluation Software version 1.1.
Background: SPR reads the build-up and loss of mass on a sensor chip optically.
As to B9, the koff came to 0.00265 s⁻¹ and the kon turned out to be 251000 M⁻¹ s⁻¹.
For B10, in that order: 0.000601 s⁻¹ and 509000 M⁻¹ s⁻¹.
The corresponding values for B11 are 0.00921 s⁻¹ and 271000 M⁻¹ s⁻¹.
For B12, in that order: 0.00501 s⁻¹ and 927000 M⁻¹ s⁻¹.

The next assay concerns the target T1, recombinant human VEGF165. As to the kind of experiment: Biacore SPR, VEGF immobilized, pH 7.4. Here is the method: as §1
Consider B10, for which the kon is > 1e+08 M⁻¹ s⁻¹.
B12: the kon is > 1e+08 M⁻¹ s⁻¹.
In the case of B13, the koff stood at 0.0143 s⁻¹ and the kon turned out to be 495000 M⁻¹ s⁻¹.
